The target of this data set is T1, CodY-6His (Listeria monocytogenes) (UniProt A0A0H3GGF1).
T1 sequence: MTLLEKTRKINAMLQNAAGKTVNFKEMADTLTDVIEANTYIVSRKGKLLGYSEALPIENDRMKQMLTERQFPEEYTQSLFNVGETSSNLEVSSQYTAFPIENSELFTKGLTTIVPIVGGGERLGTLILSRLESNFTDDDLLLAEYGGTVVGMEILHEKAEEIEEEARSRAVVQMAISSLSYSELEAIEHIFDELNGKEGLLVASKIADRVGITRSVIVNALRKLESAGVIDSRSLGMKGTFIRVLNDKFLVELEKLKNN
As to the kind of experiment: EMSA. The following applies: EMSA: 20 mM Tris-Cl pH 8, 50 mM KCl, 2 mM MgCl2, 0.5 mM EDTA, 1 mM DTT, 0.05% NP-40, 5% glycerol, 25 ug/ml salmon sperm DNA, 4 ng DIG-DNA, 15 min room ….
Usually Kd stands for a measure of binding affinity in units of concentration. The low end stands for higher affinity, the high end for lower affinity. “AAAAGTAACATTTATTTTTCAGAAAAAATTTTTTAATTTTTACCGCGATGGATTCATTCGCGGTTTTTTTGTATGTAATGCATTGGTATATAAGGCTTTATCTATAATGTTAGATTATCTAACATAAATTTGACAAAACATCTAACGTACATTATAATGCTACTATCATCAAAAAAATAATTATGTTTTGAGGGGGAATTGTCGTGAGCGAAAAGGAAATCCGGAGATCGATGCCGCTTTTTCCAATTGGGCCTGTGATGAAGCTAACTGATCTCACTGCTAGACAAATTCGCTACTATG (double strand) [glnR upstream probe]”: the Kd was found to be 74 nM.

In turn, “AACCGTCACTTGTGGCGGTTTTTTTGTGTTTTCATCTTTGTGAATTAATTTTGATTTCTTTTAAAATTGGTTATAACTCTCGCGAATTGGGGTAAAAGTAAAGAGGCAGATGAAGATACATTGTGAAAAATTGATATGATAGGACAAGTCGTTTGATTGACAGCGTTTTCTTGATATGATTAAATAGACTCAAGTTAATTAACATGTCAGGAGAAGAGATGACAATCGAAACGATGCAAGGGTACTAGTGTGCCTACGTTTTGATTGTCATTCTTTTTTTGAAGTTAATTGATAATCGGAATGTAAGGGGACTAGTAAGTGTTAAAATTCCGGTGCTACAAATAAGCAAGAAGAAGGAGTTGGAAAAGATGATTGACACAAGTTTAGCAACACAATTTCTAGGTGAAGTCATTGGTACGGCTATACTAATTATTTTAGGTGCTGGTGTCGTAGCAGGTGTTTCACTGAAAAGATCCAAAGCAGAGAATG (double strand) [glpF (LMRG_01431) upstream probe]” registered a Kd of 114 nM.

Substance “ATTCAACCCTCTTTCAAAATTCTTTTTCCCAAGTGCTTTAAATGGTACACTAATTATACCATAAGCAACTATTTTTCTATTCATTATTTACAAAAACGCTTTAACGTGCTAATATGCTAATAAACTAAAATATCGTAAAGGAGCTAACCAGATGAACTTAAATAAGAACTTACCAACTGGAACACGTGATAAACTTTTTCGTGAAGCACGAGCTGCATACAAAATTGAGCAACAAGTGAATCATTATTTT (double strand) [hisZ (LMRG_00251) upstream probe]” showed a Kd of 150 nM.

“ATTCGCTCAACTCCTTCAATATAACTTCAATAACAAGTATAGCAGTTTTATGAACAGGAACCAATTTATTACTATTTGAAATGATTATTTTTATTTAGAAATGTATTTTTAAGCATAATTATGAATAAATGAAAATAAAAAGGTTGATATCTAAAAGCATCGATGTTAATATAAATACAAATGTTTGTATATTTATGAATAGGGGATGTTTAAAATGGCGAAAGAAAAAATCGTATTAGCTTACTCAGGTGGGTTAGATACTTCTGTGGCAATTCAGTGGTTAGTAGAATCAGGTTATGAAGTTATTGCATGTT (double strand) [argG (LMRG_01241) upstream probe]” yielded a Kd of 70 nM.

“CATTAAATCCTCCCTCTTCCCATTATTACCTTTCAATATCCTTAATGGACATTTAACATCTATATACAATACACCCATTTTTTTTAAAGTGCAAGAGTTTTTTACTAAAAATGGAAAAAAATTTAATGAATGCGTTTGCTGCGAATAGAACAACTATAAGCATTGTCTCAAAAATTTTTCCTGGCTAAGAAAAAAACTGGAATAATTTTCGAAAACAAACGTGCTAATCTTATACATGTTCCAACAAACAATTACTTAGGAGGTGCTTTTCTCGTGTTAACTGATGATGTTCCAAAAAAATCACATTTACCATTAATTAAGCATCATTCTAATTACTTATAGCTTCGTTTAGTTGTATTTTCGCAAACAAAAAATTGGGAGGTAACATACAATGTCTAAACAAGCAAAGTCTTTAACCTTATTCGGATTTTTCGCCATCACGGCTTCCATGGTTATGACCGTTTATGAATATCCAACATTTGCCACTTCCG (double strand) [gadC-gadG (LMRG_01480) upstream probe]” came in with a Kd of 25 nM.

“CTTCTATATCTACTCATTAAAACCTAAGCAAACGTTCTCATTAACTACATTTTAAAAAATTTCAGAAAAATTGGTTTTTATGCTTGAAAATATTCTCAACAATGTGTAAACTAACAACATAGGTAAGAAAAGTTGACCAAATTTCAGAAAAATTTACTTAACGCACACAAGCCAATGTTTTTCTTCTTTATAACATTGCATGTATTTGCGTCAGGTTTTCTACTTTTCCTTATAGTCAAAATATTTAAACAAGGAGCGATTATAGTATGGCACAAACATCCACTATCCAAAACGACACAAAGGCAGCCGAAGAATACGCAGCTCGAGTGTTTGAAACAATTAAACAACGGAATCCTGGCGAAACGGAATTCCACCAAGCAGTTGAAGAATTCTTAAACTCTGTTATCCCAGCCCTTGCAAAAGAACCTAAATACGAAGCAAATGGCATTTTAGAACAGTTAACAGAACCCGAACGCCTTATCAGTTTCCGAGTTCCATGGGTGGATGATTCTGGCA (double strand) [gdhA (LMRG_00242) upstream probe]” gave a Kd of 57 nM.

For the substance “GAAGAAGTGAAGACGTACCTCATTCTTTAGAGAGCATTTACTGGTGAGTAAACGTATTTAAAGAGTGGAGCGTTTTTATTTTTGAATGTTTTAATTTTATTAGTTAGGGTAAAATCGACAGTATACTTAAAATTAGATGGGGTGAAGTGATGAATATTAGTATAGAAATAAAAGAACGTGATACTGACCACATAGACATATTTGTTGCTGGGGAGATCGATGCTTATACAGCGCCAAAGGTAAAAGAAGCATTAGAAGTATATCAAGTTAAAGAGGG (double strand) [rsbV-sigB (LMRG_02317) upstream probe]”, the Kd came out at 152 nM. This Kd is about 2.7-fold higher than that of the substance before.

Take “GTTAATTGCCTCCATTAATATACATATTATAGTTACCATTTTACTATAAAAAAGAACAACTTGACAGAAAAAAAGTGATTAAAAACAGCTCCAGCACTTATTTCCGTGTATCAATACAGAGGTAAAAAGGCATGCCACTTAGGCAAAAGACGGCTATGCTCTTAAGAAATTTTTTTGCTGTTATACCCTACTATTTTGCTATTCTAACAGCAATTTCAAAAAAACACTTCATATTAAGGTCTGTTCGTGATAAAATGAACATAGTTGATAATGATTATCATGTTCATTACATAACATAAAAGGAGGCCTGCTAGCTTATGCAATTAAATGAAACTGCTGTCGGTGAAAAAGTTCGCATCTCAGAATTAAAAATTGAGAACGCTATGCTTAAACGTCGCTTACTTGCACTTGGTTGCGATGAAGGTTGTGATATTTGTATCAAACAAAAAGGACTATTTGGTG (double strand) [feoA (LMRG_01257) upstream probe]”: the Kd turned out to be 90 nM.

Consider “TATAATTCTCCTTTAATAGTTTAATGTTGGTTAAACTAGCTGAAGGATTGAAGAGTTTATTTCACTCTTACTTTCTAAACAATCCTAAAGCCATTGTTAGAAAGTCGAGAGCAGTGCAATTTTGTTTGCATCTCTTTGATCACCACCTTGCCTTCATTATAAGCACTTCTGAATTGTTCGTCAATTCTCTTTTATGAATACTCTTCTAAAAACAGGGTAAACGAAAACTATTGGACATTAGAGAAAACATCCATGGGAGGAGAAAGTAAAATGAAAAAAGTAAAAGCAAGTGAAACACTCGTACAAACATTAAAAAATTGGGGTATCGACCACGTATATGGCTTGCCCGGCGATTCGATTGACACCGTAGTTGACGCTTTACGAAAAGAAC (double strand) [poxB (LMRG_00411) upstream probe]”, for which the Kd came out at 55 nM.

“TTAACAAATGTTAGAGAAAAATTAATTCTCCAAGTGATATTCTTAAAATAATTCATGAATATTTTTTCTTATATTAGCTAATTAAGAAGATAATTAACTGCTAATCCAATTTTTAACGGAATAAATTAGTGAAAATGAAGGCCGAATTTTCCTTGTTCTAAAAAGGTTGTATTAGCGTATCACGAGGAGGGAGTATAAGTGGGATTAAATAGATTTATGCGTGCGATGATGGTAGTTTTCATTACTGCCAACTGCATTACGATTAACCCCGACATAATATTTGCAGCGACAGATA (double strand) [actA (LMRG_02626) upstream probe]” registered a Kd of 208 nM.

Turning to fliN (LMRG_02874) upstream probe, the Kd was 26 nM.

Substance glnR upstream probe returned a Kd of 74 nM.

Source of the values: publication PMC4760761.
